Results published in patent US20170275666A1, “Methods for Preparing Rebaudioside I and Uses” (The Coca-Cola Company, priority 2014, published 2017).
Substitutions are numbered along the chain they refer to.

Columns and labels:
Type in all cases: biochemical
[1] = Catalytic reaction with in-vivo produced UGT76G1, stevioside to rebaudioside A; conditions: 0.5 mM Stevioside, 2.5 mM UDP-glucose, thawed lysate, 30° C., HPLC (CAD)
Procedure: The total volume of the reaction was 5.0 mL with the following composition: 50 mM sodium phosphate buffer pH 7.2, 3 mM MgCl2, 2.5 mM UDP-glucose, 0.5 mM Stevioside and 500 μL of UGT76G1 thawed lysate. The reactions were run at 30° C. on an orbitary shaker at 135 rpm. For each sample, 460 μL of the reaction mixture was quenched with 40 μL of 2N H2SO4 and 420 μL of methanol/water (6/4). The samples were immediately centrifuged and kept at 10° C. before analysis by HPLC (CAD).

[2] = Directed evolution of UGT76G1, conversion of Rebaudioside D to Rebaudioside M (Round 2), normalized to Round1-Var94; conditions: round 2 clones; baseline clone Round1-Var94 defined as 100%; lysate, Rebaudioside D 0.5 mM, UDP-Glucose 2.5 mM, 30° C., pH 7.2, HPLC
Description: A list of 53 mutations was established containing different identified positive mutations from the first round and new mutations obtained by DNA2.0 ProteinGPS™ strategy. This list of mutations was subsequently used to design 92 variant genes that contained each 3 different mutations. After codon-optimized for expression in E. coli the genes were synthesized, subcloned in the pET30a+ plasmid and used for transformation of E. coli BL21 (DE3) chemically competent cells. The obtained cells were grown in Petri-dishes on solid LB medium in the presence of Kanamycin. Suitable colonies were selected and allowed to grow in liquid LB medium in tubes. Glycerol was added to the suspension as cryoprotectant and 400 μL aliquots were stored at −20° C. and at −80° C.
These storage aliquots of E. coli BL21(DE3) containing the pET30a+_UGT76G1var plasmids were thawed and added to LBGKP medium (20 g/L Luria Broth Lennox; 50 mM PIPES buffer pH 7.00; 50 mM Phosphate buffer pH 7.00; 2.5 g/L glucose and 50 mg/L of Kanamycine). This culture was allowed to shake in a 96 microtiter plate at 30° C. for 8 h.
3.95 mL of production medium containing 60 g/L of Overnight Express™ Instant TB medium (Novagen®), 10 g/L of glycerol and 50 mg/L of Kanamycin was inoculated with 50 μL of above described culture. In a 48 deepwell plate the resulting culture was allowed to stir at 20° C. […]

[3] = Directed evolution of UGT76G1, conversion of Rebaudioside D to Rebaudioside M (round 1); conditions: 0.5 mM Rebaudioside D, 2.5 mM UDP-Glucose, 100 μL fresh lysate, 30° C., pH 7.2
Summary of the method: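 Conversion to Reb M and initial rate were measured by HPLC with CAD at 2, 4, 7 and 24 h, with reactions run at 30° C in 50 mM phosphate pH 7.2 containing 0.5 mM Reb D, 2.5 mM UDP-glucose and 3 mM MgCl2. Enzyme source: fresh lysates of E. coli BL21(DE3) expressing 3-5-mutation UGT76G1 variants.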

B1: UGT76G1: UDP-glycosyltransferase from Stevia rebaudiana (Genbank AAR06912.1), in-vivo produced lysate (protein, UniProt Q6VAB4 1-458, looked up)
UDP-glycosyltransferase 76G1: MENKTETTVRRRRRIILFPVPFQGHINPILQLANVLYSKGFSITIFHTNFNKPKTSNYPHFTFRFILDNDPQDERISNLPTHGPLAGMRIPIINEHGADELRRELELLMLASEEDEEVSCLITDALWYFAQSVADSLNLRRLVLMTSSLFNFHAHVSLPQFDELGYLDPDDKTRLEEQASGFPMLKVKDIKSAYSNWQILKEILGKMIKQTKASSGVIWNSFKELEESELETVIREIPAPSFLIPLPKHLTASSSSLLDHDRTVFQWLDQQPPSSVLYVSFGSTSEVDEKDFLEIARGLVDSKQSFLWVVRPGFVKGSTWVEPLPDGFLGERGRIVKWVPQQEVLAHGAIGAFWTHSGWNSTLESVCEGVPMIFSDFGLDQPLNARYMSDVLKVGVYLENGWERGEIANAIRRVMVDEEGEYIRQNARVLKQKADVSLMKGGSSYESLESLVSYISSL
modifications: cell lysate
notes: UDP-glycosyltransferase from Stevia rebaudiana (Genbank AAR06912.1), in-vivo produced lysate
conversion of stevioside to rebaudioside A [1]: almost complete conversion

B2: UGT76G1var94: UGT76G1 variant, mutations Q266E_P272A_R334K_G348P_L379G; most active round 1 clone (protein, UniProt Q6VAB4 1-458, looked up, variant Q266E P272A R334K G348P L379G)
UDP-glycosyltransferase 76G1: B1 UDP-glycosyltransferase 76G1 with Q266E, P272A, R334K, G348P, L379G
Normalized conversion Reb D to Reb M after 22 h. [2]: 100% | Normalized initial rate (0-4 h) [2]: 100% | Conversion Reb D to Reb M after 24 h (%) [3]: 72.0% | initial rate (Reb M area/min) [3]: 7.9E+07 Reb M area/min
